In PMC3030345 (The Journal of Biological Chemistry, 2010):

Biological target: the molecule itself
Experiment: atomic force microscopy

B1: A3G-H248A/H250A-Myc-His (enzyme, human, UniProt Q9HC16 1-384, looked up)
chain: MKPHFRNTVERMYRDTFSYNFYNRPILSRRNTVWLCYEVKTKGPSRPPLDAKIFRGQVYSELKYHPEMRFFHWFSKWRKLHRDQEYEVTWYISWSPCTKCTRDMATFLAEDPKVTLTIFVARLYYFWDPDYQEALRSLCQKRDGPRATMKIMNYDEFQHCWSKFVYSQRELFEPWNNLPKYYILLHIMLGEILRHSMDPPTFTFNFNNEPWVRGRHETYLCYEVERMHNDTWVLLNQRRGFLCNQAPAKAGFLEGRHAELCFLDVIPFWKLDLDQDYRVTCFTSWSPCFSCAQEMAKFISKNKHVSLCIFTARIYDDQGRCQEGLRTLAEAGAKISIMTYSEFKHCWDTFVDHQGCPFQPWDGLDEHSQDLSGRLRAILQNQEN
In the case of B1, the “stoichiometry N” value is reported as 2.
